Results reported in patent publication US20260055188A1 (SHENGHE CHINA BIOPHARMACEUTICAL, published 2026).
Where two headings read alike, the source gives them in different places.

T1: Human-B7H3 His (manufacturer: Acro, CAT: TB73-H52E2) (human, UniProt Q5ZPR3-2 29-245)
T1 construct: also called human B7H3 protein; B7H3 protein; not shown: His tag
T1 sequence (looked up): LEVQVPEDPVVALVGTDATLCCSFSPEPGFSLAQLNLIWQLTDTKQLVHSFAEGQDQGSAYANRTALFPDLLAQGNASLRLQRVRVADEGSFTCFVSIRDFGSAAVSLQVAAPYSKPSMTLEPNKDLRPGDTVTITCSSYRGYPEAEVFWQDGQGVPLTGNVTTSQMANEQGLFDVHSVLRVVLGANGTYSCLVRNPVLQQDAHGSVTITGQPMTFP

T2: Human-TNFR2-His (manufacturer: SINO, CAT: 10417-H08H) (human, UniProt P20333 23-257)
T2 construct: Bought protein; also called human TNFR2 protein; TNFR2 protein; not shown: His tag
T2 sequence (looked up): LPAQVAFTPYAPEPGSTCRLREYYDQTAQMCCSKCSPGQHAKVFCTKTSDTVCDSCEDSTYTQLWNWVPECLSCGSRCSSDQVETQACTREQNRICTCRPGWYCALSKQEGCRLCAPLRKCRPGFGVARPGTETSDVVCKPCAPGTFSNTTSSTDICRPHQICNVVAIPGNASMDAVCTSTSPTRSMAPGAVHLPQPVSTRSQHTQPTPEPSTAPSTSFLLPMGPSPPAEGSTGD


Assays:
[1] = molecular target: T1, Human-B7H3 His (manufacturer: Acro, …); test: ELISA: Human-B7H3 His coated (0.3 µg/mL), antibody titrated, goat anti-human IgG Fc detection, OD450 (Example 3)
Procedure: (§1) Human-B7H3 His (manufacturer: Acro, CAT: TB73-H52E2, LOT: 2052-21AXF1-YS) was diluted to 0.3 μg/mL with a coating solution (1×PBS, pH7.4), and coated into a 96-well ELISA plate at 100 μL/well overnight at 4° C. The coating solution was poured off. Each well was washed with 1×PBST at 300 μL, washed 4 times with a plate washer, and patted dry on a flat paper. It was blocked with 3% skim milk powder at 300 μL/well, and incubated at 37° C. for 1 h. The blocking solution was poured off, washed 4 times with a plate washer, and patted dry on a flat paper. Negative control and positive control were set up. […] The variable region of the antibody sequence of the positive control consists of SEQ ID NO: 1 and SEQ ID NO: 5, with the constant region of human IgG1 added (SEQ ID NO: 85 and SEQ ID NO: 86). The positive control and antibody were diluted to 10 μg/mL with 3% skim milk powder as the starting concentration, and then diluted by 3-fold gradient (11 gradients in total). A blank well was set up and only the diluent was added. It was incubated at 37° C. for 1 h at 100 μL/well. The liquid in the well was discarded, washed 4 times with a plate washer, and patted dry on a flat paper. Goat anti-human IgG Fc was diluted with 3% skim milk powder at 1:20000, and incubated at 37° C. for 1 h at 100 μL/well. It was washed 6 times with a plate washer, and patted dry on a flat paper. TMB color developing solution was added at 100 μL/well, and wrapped with aluminum foil. Color development was performed at 37° C. in the dark for 8 min. Termination solution 1M HCl was added to terminate the color development reaction at 100 μL/well. Readings were taken at 450 nm on an ELISA reader.

[2] = molecular target: T2, Human-TNFR2-His (manufacturer: SINO, …); test: bridging ELISA: Human-B7H3 Fc coated (0.5 µg/mL), antibody titrated, then Human-TNFR2-His (0.5 µg/mL), HRP-labeled anti-His detection, OD450 (Example 4); the signal needs both proteins bound at once
Procedure: Human-B7H3 Fc (manufacturer: Acro, CAT: B73-H5253, LOT: 2053b-201XF1-UD) was diluted to 0.5 μg/mL with a coating solution (1×PBS, pH7.4) and coated into a 96-well ELISA plate at 100 μL/well at 4° C. overnight. The coating solution was poured off. Each well was washed with 1×PBST at 300 μL, washed 4 times with a plate washer, and patted dry on a flat paper. It was blocked with 3% skim milk powder at 300 μL/well, and incubated at 37° C. for 1 h. The blocking solution was poured off, washed 4 times with a plate washer, and patted dry on a flat paper. […] Starting at 300 nM, which was used as the initial concentration for 3-fold dilution, a total of 8 gradients were diluted, and a blank well was set up, and only diluent was added. It was incubated at 37° C. for 1 h at 100 μL/well. The liquid in the well was discarded, washed 4 times with a plate washer, and patted dry on a flat paper. Human-TNFR2-His (manufacturer: Sino, CAT: 10417-H08H, LOT: LC12SE2902) was diluted to 0.5 μg/mL, 100 μL was added to each well, and incubated at room temperature for 1 h. The plate was washed 3 times with PBST, and then the HRP-labeled his antibody was diluted with sample diluent at 1:10000, 100 μL was added to each well, and incubated at room temperature for 1 h. It was washed 6 times with a plate washer, and patted dry on a flat paper. TMB color developing solution was added at 100 μL/well, and wrapped with aluminum foil. Color development was performed at 37° C. in the dark for 8 min. Termination solution 1M HCl was added to terminate the color development reaction at 100 μL/well. Readings were taken at 450 nm on an ELISA reader.

[3] = molecular target: T1, Human-B7H3 His (manufacturer: Acro, …); test: ELISA: Human-B7H3 His coated (0.3 µg/mL), antibody titrated, goat anti-human IgG Fc detection, OD450 (Example 3); remark: listed apart in the source
Procedure: as §1

[4] = molecular target: T2, Human-TNFR2-His (manufacturer: SINO, …); test: ELISA: Human-TNFR2-His coated (0.3 µg/mL), antibody titrated, goat anti-human IgG Fc detection, OD450 (Example 2)
Procedure: Human-TNFR2-His (manufacturer: SINO, CAT: 10417-H08H, LOT: LC15NO0412) was diluted to 0.3 μg/mL with a coating solution (1×PBS, pH7.4), and coated into a 96-well ELISA plate at 100 μL/well overnight at 4° C. The coating solution was poured off. Each well was washed with 1×PBST at 300 μL, washed 4 times with a plate washer, and patted dry on a flat paper. It was blocked with 3% skim milk powder at 300 μL/well, and incubated at 37° C. for 1 h. The blocking solution was poured off, washed 4 times with a plate washer, and patted dry on a flat paper. Negative control and positive control were set up. […] The positive control and antibody were diluted to 10 μg/mL with 3% skim milk powder as the starting concentration, and then diluted by 3-fold gradient (11 gradients in total). A blank well was set up and only the diluent was added. It was incubated at 37° C. for 1 h at 100 μL/well. The liquid in the well was discarded, washed 4 times with a plate washer, and patted dry on a flat paper. Goat anti-human IgG Fc was diluted with 3% skim milk powder at 1:20000, and incubated at 37° C. for 1 h at 100 μL/well. It was washed 6 times with a plate washer, and patted dry on a flat paper. TMB color developing solution was added at 100 μL/well, and wrapped with aluminum foil. Color development was performed at 37° C. in the dark for 8 min. Termination solution 1M HCl was added to terminate the color development reaction at 100 μL/well. Readings were taken at 450 nm on an ELISA reader.

| EC50 (read off the curve) [1] | binding result [2] | EC50 (read off the curve) [3] [nM] | binding result [4] | Binder |
| --- | --- | --- | --- | --- |
| ~0.2 µg/mL | binds |  |  | TB-H (bispecific antibody, human IgG1, kappa, also called antibody TB-H) light: EVQLVESGGGLVQPGGSLRLSCAASGSRLDYYAVAWFRQAPGKEREEVSCITYSGGSTNYAESVKGRFTISRDNSKNTLYLQMNSLRAEDTAVYYCTTEPYGSSCPLSGYDTWGQGTLVTVSSGGGGSGGGGSGGGGSDIVMTQSPATLSVTPGDRVSLSCRASQSISDYLHWYQQKSHESPRLLIKYASQSISGIPSRFSGSGSGSDFTLSINSVEPEDVGVYYCQNGHSFPLTFGAGTKLELKRTVAAPSVFIFPPSDEQLKSGTASVVCLLNNFYPREAKVQWKVDNALQSGNSQESVTEQDSKDSTYSLSSTLTLSKADYEKHKVYACEVTHQGLSSPVTKSFNRGEC heavy: not shown |
| ~0.3 nM |  | ~0.2 |  | Positive Control (antibody, V domains shown) VH: QVQLQQSGAELVKPGASVKLSCKASGYTFTNYDINWVRQRPEQGLEWIGWIFPGDGSTQYNEKFKGKATLTTDTSSSTAYMQLSRLTSEDSAVYFCARQTTATWFAYWGQGTLVTVSA VL: DIVMTQSPATLSVTPGDRVSLSCRASQSISDYLHWYQQKSHESPRLLIKYASQSISGIPSRFSGSGSGSDFTLSINSVEPEDVGVYYCQNGHSFPLTFGAGTKLELK |

Continued, binder first:

| Binder | EC50 (read off the curve) [1] | binding result [2] | EC50 (read off the curve) [3] [nM] | binding result [4] |
| --- | --- | --- | --- | --- |
| TB-C2 (bispecific antibody, human IgG4 S228P, kappa, also called antibody TB-C2) light: DIVMTQSPATLSVTPGDRVSLSCRASQSISDYLHWYQQKSHESPRLLIKYASQSISGIPSRFSGSGSGSDFTLSINSVEPEDVGVYYCQNGHSFPLTFGAGTKLELKRTVAAPSVFIFPPSDEQLKSGTASVVCLLNNFYPREAKVQWKVDNALQSGNSQESVTEQDSKDSTYSLSSTLTLSKADYEKHKVYACEVTHQGLSSPVTKSFNRGEC heavy: not shown |  |  | ~2 | binds |
| TB-D2 (bispecific antibody, human IgG4 S228P, kappa, also called antibody TB-D2) light: DIVMTQSPATLSVTPGDRVSLSCRASQSISDYLHWYQQKSHESPRLLIKYASQSISGIPSRFSGSGSGSDFTLSINSVEPEDVGVYYCQNGHSFPLTFGAGTKLELKRTVAAPSVFIFPPSDEQLKSGTASVVCLLNNFYPREAKVQWKVDNALQSGNSQESVTEQDSKDSTYSLSSTLTLSKADYEKHKVYACEVTHQGLSSPVTKSFNRGEC heavy: not shown |  |  | ~1 | binds |
| TB-G (bispecific antibody, human IgG1, kappa, also called antibody TB-G) light: DIVMTQSPATLSVTPGDRVSLSCRASQSISDYLHWYQQKSHESPRLLIKYASQSISGIPSRFSGSGSGSDFTLSINSVEPEDVGVYYCQNGHSFPLTFGAGTKLELKRTVAAPSVFIFPPSDEQLKSGTASVVCLLNNFYPREAKVQWKVDNALQSGNSQESVTEQDSKDSTYSLSSTLTLSKADYEKHKVYACEVTHQGLSSPVTKSFNRGECGGGGSGGGGSEVQLVESGGGLVQPGGSLRLSCAASGSRLDYYAVAWFRQAPGKEREEVSCITYSGGSTNYAESVKGRFTISRDNSKNTLYLQMNSLRAEDTAVYYCTTEPYGSSCPLSGYDTWGQGTLVTVSS heavy: not shown |  | binds |  |  |
| TB-F (bispecific antibody, human IgG1, kappa, also called antibody TB-F) light: EVQLVQSGAEVKKPGATVKISCKVSGYSITDYLLHWVQQAPGKCLEWMGWIDPEDAKTKYGQKFQSRVTITADTSTDTAYMELSSLRSEDTAVYYCAANSGTGTMDAWGQGTLVTVSSGGGGSGGGGSGGGGSDIVMTQSPATLSVSPGERATLSCKASQNVGSNVDWYQQKPGQSPRVLIYKASIRYTGIPARFSGSGSGTEFTLTISILQSEDFAVYFCMQSKSYPITFGCGTKLEIKGGGGSGGGGSGGGGSDIVMTQSPATLSVTPGDRVSLSCRASQSISDYLHWYQQKSHESPRLLIKYASQSISGIPSRFSGSGSGSDFTLSINSVEPEDVGVYYCQNGHSFPLTFGAGTKLELKRTVAAPSVFIFPPSDEQLKSGTASVVCLLNNFYPREAKVQWKVDNALQSGNSQESVTEQDSKDSTYSLSSTLTLSKADYEKHKVYACEVTHQGLSSPVTKSFNRGEC heavy: not shown | ~0.2 µg/mL | binds |  |  |
